In assay [1] the target is C5 (Homo sapiens, UniProt P01031). The experiment in a line: Monoclonal phage screening ELISA, human C5. As to conditions: anti-C5 ultralong CDR-H3; binder = OD>0.2 AU. In kind it is binding. How it is done: (§1) For the C5 libraries, a single round of enrichment was performed with either human or rat C5 protein. […] Phage were blocked for 30 minutes. Biotinylated antigen was added to the blocked phage at a concentration of 100 nM and incubated at room temperature with mixing.
(§2) Colonies were picked into a 96-well culture plate containing selective medium 2TY supplemented with 1% Glucose and 100 μg/ml Carbenicillin and was incubated at 37° C. until wells reached mid-log phase of growth prior to addition of M13K07 helper phage. The block was incubated without shaking for 1 hour to achieve infection and phage production using continued culture in selective media supplemented with 50 μg/ml Kanamycin and 100 μg/ml Carbenicillin.
Binding to antigen was assessed by monoclonal phage ELISA, 96-well flat bottom Nunc MaxiSorp plates (Thermofisher) were coated with a 2.5 μg/ml solution of human, mouse, or rat serum albumin, human C5 or mouse C5 diluted with PBS, and left overnight at 4° C. Negative control plate and Anti-myc tag plate were also prepared.
Monoclonal phage rescue supernatants were blocked with an equal volume of a 2% milk (w/v) in PBS, for serum albumin proteins, or 2% BSA and 2% milk (w/v) in PBS solution. The coating solution was removed from coated Nunc plates and each plate was blocked with 1% BSA in PBS (for C5 libraries) or 1% milk powder (for albumin library). Both phage and Nunc plates were blocked for 1 hour at room temperature. Nunc plates were washed using a 96-well microplate washer (BioTek) with a PBS solution contain 0.1% Tween20 (Sigma Aldrich). 100 of blocked phage solution was added to each well of Nunc MaxiSorp plate and left shaking at room temperature for 1 hour. Plates were washed and dried as previously described. 100 of an Anti-M13-Horse radish peroxidase conjugated antibody (GE Healthcare) diluted (1:5,000) in a 1% BSA or milk solution was added to each well and left shaking at room temperature for 1 hour. Plates were washed again and 50 μL of TMB solution (Merck Millipore) was added to each well. Plates were left shaking for 10 minutes. Absorbance was measured at 630 nm and 490 nm. Binding signals were obtained where Absorbance at 630 nm was >3-times the signal upon irrelevant antigen.
By monoclonal phage ELISA the following ultralong CDR-H3 sequences were identified as binders (OD>0.2 AU): […]

The target in assay [2] is rat C5 protein (Rattus norvegicus, UniProt P08650). The experiment in a line: Monoclonal phage screening ELISA, rat C5. In kind it is binding. The following applies: anti-C5 ultralong CDR-H3; binder = OD>0.2 AU. How it is done: as §1, §2
[…] Negative control plate and Anti-myc tag plate were also prepared.
Monoclonal phage rescue supernatants were blocked with an equal volume of a 2% milk (w/v) in PBS, for serum albumin proteins, or 2% BSA and 2% milk (w/v) in PBS solution. The coating solution was removed from coated Nunc plates and each plate was blocked with 1% BSA in PBS (for C5 libraries) or 1% milk powder (for albumin library). Both phage and Nunc plates were blocked for 1 hour at room temperature. […] Absorbance was measured at 630 nm and 490 nm. Binding signals were obtained where Absorbance at 630 nm was >3-times the signal upon irrelevant antigen. […]
On the technique in general: In an ELISA, binding on a coated surface is turned into a signal by an enzyme label.

Chain of C5 (P01031 19-1676): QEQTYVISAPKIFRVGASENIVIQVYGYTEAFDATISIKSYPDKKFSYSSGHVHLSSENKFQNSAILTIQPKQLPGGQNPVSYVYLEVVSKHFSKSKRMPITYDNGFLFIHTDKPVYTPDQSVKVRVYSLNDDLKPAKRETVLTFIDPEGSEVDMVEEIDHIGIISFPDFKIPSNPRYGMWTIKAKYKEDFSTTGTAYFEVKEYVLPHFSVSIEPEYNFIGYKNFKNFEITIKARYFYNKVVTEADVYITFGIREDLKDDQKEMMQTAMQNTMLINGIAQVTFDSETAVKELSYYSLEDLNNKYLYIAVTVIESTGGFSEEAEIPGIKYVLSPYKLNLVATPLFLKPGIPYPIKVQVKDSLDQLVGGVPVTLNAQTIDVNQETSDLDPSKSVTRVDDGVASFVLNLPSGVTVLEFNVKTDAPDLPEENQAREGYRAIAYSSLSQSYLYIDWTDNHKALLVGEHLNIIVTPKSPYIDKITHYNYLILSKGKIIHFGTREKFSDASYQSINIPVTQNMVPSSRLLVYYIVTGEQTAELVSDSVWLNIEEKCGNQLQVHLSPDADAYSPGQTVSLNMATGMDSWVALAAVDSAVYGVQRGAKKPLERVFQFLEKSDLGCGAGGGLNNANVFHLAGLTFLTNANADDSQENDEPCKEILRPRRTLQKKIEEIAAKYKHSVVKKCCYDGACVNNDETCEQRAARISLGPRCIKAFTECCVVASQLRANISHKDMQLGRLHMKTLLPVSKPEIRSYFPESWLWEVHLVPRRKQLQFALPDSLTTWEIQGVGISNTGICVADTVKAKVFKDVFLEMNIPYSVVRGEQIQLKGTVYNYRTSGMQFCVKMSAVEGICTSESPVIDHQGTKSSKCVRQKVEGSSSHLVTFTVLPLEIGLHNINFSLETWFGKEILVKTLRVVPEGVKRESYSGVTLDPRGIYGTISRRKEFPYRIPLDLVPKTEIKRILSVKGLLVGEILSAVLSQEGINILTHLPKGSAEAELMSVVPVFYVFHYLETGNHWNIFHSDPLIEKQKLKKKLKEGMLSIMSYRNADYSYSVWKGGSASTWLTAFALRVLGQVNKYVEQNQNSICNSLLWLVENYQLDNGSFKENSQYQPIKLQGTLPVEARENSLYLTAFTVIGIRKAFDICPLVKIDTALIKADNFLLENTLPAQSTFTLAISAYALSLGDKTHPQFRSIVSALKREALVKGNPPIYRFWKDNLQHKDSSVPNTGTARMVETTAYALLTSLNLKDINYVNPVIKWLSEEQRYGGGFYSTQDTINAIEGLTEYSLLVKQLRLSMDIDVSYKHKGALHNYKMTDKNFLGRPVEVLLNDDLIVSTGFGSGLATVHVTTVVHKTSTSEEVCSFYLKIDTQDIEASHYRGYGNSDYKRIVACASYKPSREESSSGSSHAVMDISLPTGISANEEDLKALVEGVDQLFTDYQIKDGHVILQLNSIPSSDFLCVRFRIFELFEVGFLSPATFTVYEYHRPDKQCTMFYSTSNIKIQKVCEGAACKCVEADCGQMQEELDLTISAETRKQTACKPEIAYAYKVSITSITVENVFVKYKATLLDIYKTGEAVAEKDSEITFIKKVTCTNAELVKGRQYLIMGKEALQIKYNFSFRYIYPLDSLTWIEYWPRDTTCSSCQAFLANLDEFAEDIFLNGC
Chain of rat C5 protein (P08650 19-674 limits assumed): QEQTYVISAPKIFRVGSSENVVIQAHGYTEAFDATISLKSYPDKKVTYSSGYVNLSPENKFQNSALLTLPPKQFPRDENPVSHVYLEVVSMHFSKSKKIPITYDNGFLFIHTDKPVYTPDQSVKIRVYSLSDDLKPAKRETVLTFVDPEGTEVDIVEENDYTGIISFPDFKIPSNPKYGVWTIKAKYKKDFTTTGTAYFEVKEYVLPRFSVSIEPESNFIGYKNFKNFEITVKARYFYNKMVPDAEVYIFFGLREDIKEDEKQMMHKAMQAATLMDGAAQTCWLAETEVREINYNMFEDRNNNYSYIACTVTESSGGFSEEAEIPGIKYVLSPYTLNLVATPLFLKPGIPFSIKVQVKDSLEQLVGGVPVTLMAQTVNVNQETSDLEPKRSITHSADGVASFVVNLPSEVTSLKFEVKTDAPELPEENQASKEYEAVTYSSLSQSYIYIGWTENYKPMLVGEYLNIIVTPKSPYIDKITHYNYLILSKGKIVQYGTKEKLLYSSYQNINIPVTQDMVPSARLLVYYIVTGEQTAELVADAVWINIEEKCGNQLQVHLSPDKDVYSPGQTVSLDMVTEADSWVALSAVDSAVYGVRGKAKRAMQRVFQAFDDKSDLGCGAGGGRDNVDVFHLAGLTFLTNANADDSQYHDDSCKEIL
Chain of rat C5 protein (P08650 679-1681 limits assumed): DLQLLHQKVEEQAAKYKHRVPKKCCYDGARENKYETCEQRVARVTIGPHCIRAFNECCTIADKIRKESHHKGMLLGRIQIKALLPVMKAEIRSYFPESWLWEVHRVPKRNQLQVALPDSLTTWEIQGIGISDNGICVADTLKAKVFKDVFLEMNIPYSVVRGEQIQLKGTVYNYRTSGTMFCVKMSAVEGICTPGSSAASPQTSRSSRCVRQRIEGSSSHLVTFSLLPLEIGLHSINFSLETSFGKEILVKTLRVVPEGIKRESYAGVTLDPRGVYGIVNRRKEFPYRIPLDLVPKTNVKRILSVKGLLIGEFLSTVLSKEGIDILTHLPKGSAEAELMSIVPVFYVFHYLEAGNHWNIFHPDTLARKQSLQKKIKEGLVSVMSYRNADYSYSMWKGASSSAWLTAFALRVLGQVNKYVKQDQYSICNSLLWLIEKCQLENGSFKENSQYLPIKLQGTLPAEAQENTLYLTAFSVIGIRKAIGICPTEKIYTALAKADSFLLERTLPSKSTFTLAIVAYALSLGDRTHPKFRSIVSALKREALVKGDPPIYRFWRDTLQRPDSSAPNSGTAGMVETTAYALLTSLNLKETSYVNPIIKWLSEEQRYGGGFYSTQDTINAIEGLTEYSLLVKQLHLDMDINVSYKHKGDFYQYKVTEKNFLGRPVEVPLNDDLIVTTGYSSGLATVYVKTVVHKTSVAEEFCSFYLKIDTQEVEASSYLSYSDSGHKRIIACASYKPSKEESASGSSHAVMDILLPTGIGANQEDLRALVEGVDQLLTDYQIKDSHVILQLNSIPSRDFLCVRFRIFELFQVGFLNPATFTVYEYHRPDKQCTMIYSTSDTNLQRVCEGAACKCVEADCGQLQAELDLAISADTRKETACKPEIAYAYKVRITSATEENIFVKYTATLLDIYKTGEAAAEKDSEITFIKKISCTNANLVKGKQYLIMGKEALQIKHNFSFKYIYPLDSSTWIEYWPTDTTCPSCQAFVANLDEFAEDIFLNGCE

B1: 556 (protein)
CDR: TTVHQKTTRVNSCPDGYGYGDGYCYDSGCSASDCYGVDALYSYGHCGCSIYTERPRYEWYVD
modifications: Anti-C5 ultralong CDR-H3
With B1, the Specificity result in assay [1] was “Human and Rat”; in assay [2], “Human and Rat”.

Values taken from US20240024520A1, “AUTONOMOUS KNOB DOMAIN PEPTIDES” (UCB BIOPHARMA SRL, priority 2020, published 2024).
